Source: patent US20250161472A1 (BIOATLA, published 2025)
Numbering of substitutions follows the chain as printed. In names and notes the source's numbering stands.

B1: HC-N106E (antibody, V domains shown)
VH: EVQLQQSGPELVKPGASVKISCKTSGYTFTEYTMHWMKQSHRKSLEWIGGINTNNGGTGYNQKFKGKATLTVDKSSSTAYMELRSLTSEDSAVYFCARGSLYSYGESYFDYWGQGTLVTVSS
VL: QIVLTQSPAIMSASPGEKVTITCSATSSVSYMHWFQQKPGTSPKLWIYGTSNLASGVPARFSGSGSGTSYSLTISRMEAEDAATYYCQQRSSYPFTFGQGTKVEIK
B2: LC-F097D (antibody, V domains shown)
VH: B1 VH with E106N
VL: B1 VL with F97D
B3: LC-T096D (antibody, V domains shown)
VH: B1 VH with E106N
VL: B1 VL with T96D
notes: CPE single point mutant of parent VL 48.6-LC-WT
B4: LC-S092D (antibody, V domains shown)
VH: B1 VH with E106N
VL: B1 VL with S92D
notes: as for B3
B5: LC-S092V (antibody, V domains shown)
VH: B1 VH with E106N
VL: B1 VL with S92V
notes: as for B3
B6: LC-Y031C (antibody, V domains shown)
VH: B1 VH with E106N
VL: B1 VL with Y31C
notes: as for B3
B7: LC-S030D (antibody, V domains shown)
VH: B1 VH with E106N
VL: B1 VL with S30D
notes: as for B3
B8: LC-R090H (antibody, V domains shown)
VH: B1 VH with E106N
VL: B1 VL with R90H
notes: as for B3
B9: LC-Y031D (antibody, V domains shown)
VH: B1 VH with E106N
VL: B1 VL with Y31D
notes: as for B3
B10: BAP048 conjugated to monomethyl auristatin E (BAP048 ADC) (other)
VL: AIQLTQSPSSLSASVGDRVTITCSATSSVSYMHWYLQKPGQSPQLLIYGTSNLASGVPDRFSGSGSGTDFTLKISRVEAEDVGVYYCQQRSSYPFTFGQGTKVEIK
VH: EVQLVQSGAEVKKPGESLRISCKGSGYTFTEYTMHWVRQAPGQGLEWMGGINTNNGGTGYNQKFKGRVTISADKSISTAYLQWSSLKASDTAMYYCAHGSLYSYGNSYFDYWGQGTLVTVSS
modifications: MMAE drug conjugate (site, chain and linker not stated in Example 5)
B11: BAP048.7-humC02D09-CAB )#3947) (antibody, V domains shown)
VH: B10 VH with E1Q, E16A, L18V, R19K, I20V, G24A, P41R, G44R, M48I
VL: B10 VL with L36Q, S42A, Q44R
notes: The sheet says 'mAb'; also called BAP048.7-C02D09; ROR2-CAB1-ADC (as conjugate)
B12: BAP048.7-humA03F01-CAB (#3948) (antibody, V domains shown)
VH: B10 VH with V37I, A40S, G42S, Q43R, M48L
VL: B10 VL
notes: The sheet says 'mAb'; also called BAP048.7-humA03F01 (#3948); BAP048.7-A03F01

How the values were obtained:
[1] = target: human ROR2 (receptor tyrosine kinase-like orphan receptor 2) (human) (UniProt Q01974); assay: affinity ELISA on human ROR2, pH 6.0
Sequence of human ROR2 (receptor tyrosine kinase-like orphan receptor 2) (human) (Q01974 34-403 limits assumed): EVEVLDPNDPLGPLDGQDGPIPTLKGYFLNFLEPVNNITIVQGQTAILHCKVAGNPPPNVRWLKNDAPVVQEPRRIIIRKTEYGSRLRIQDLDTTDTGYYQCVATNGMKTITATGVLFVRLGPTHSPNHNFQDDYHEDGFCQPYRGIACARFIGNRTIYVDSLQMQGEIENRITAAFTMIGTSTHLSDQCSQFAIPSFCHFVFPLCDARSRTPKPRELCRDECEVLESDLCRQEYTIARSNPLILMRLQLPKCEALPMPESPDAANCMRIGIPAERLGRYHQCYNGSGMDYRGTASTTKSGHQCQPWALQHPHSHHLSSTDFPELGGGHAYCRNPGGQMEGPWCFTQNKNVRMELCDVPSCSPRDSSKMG

[2] = target: human ROR2 (receptor tyrosine kinase-like orphan receptor 2) (human) (UniProt Q01974); assay: affinity ELISA on human ROR2, pH 7.4
[3] = target: human ROR2 (receptor tyrosine kinase-like orphan receptor 2) (human) (UniProt Q01974); assay: affinity ELISA on human ROR2, signal at pH 6.0 over pH 7.4
[4] = target: T1, human ROR2 (receptor tyrosine kinase-like orphan receptor 2) (human, UniProt Q01974 34-403, limits assumed); assay: affinity ELISA on human ROR2, pH 6.0; parameters: unit not given here
T1 construct: Antigen of the ELISA, SPR and pH titration assays; also called hROR2
T1 sequence (Q01974 34-403 limits assumed): as above

[5] = target: T1, human ROR2 (receptor tyrosine …); assay: affinity ELISA on human ROR2, pH 7.4; parameters: unit not given here
[6] = target: human ROR2 expressed on the surface of HEK293 cells (human, UniProt Q01974 34-943); assay: cell-based or functional assay
Sequence of human ROR2 expressed on the surface of HEK293 cells (Q01974 34-943): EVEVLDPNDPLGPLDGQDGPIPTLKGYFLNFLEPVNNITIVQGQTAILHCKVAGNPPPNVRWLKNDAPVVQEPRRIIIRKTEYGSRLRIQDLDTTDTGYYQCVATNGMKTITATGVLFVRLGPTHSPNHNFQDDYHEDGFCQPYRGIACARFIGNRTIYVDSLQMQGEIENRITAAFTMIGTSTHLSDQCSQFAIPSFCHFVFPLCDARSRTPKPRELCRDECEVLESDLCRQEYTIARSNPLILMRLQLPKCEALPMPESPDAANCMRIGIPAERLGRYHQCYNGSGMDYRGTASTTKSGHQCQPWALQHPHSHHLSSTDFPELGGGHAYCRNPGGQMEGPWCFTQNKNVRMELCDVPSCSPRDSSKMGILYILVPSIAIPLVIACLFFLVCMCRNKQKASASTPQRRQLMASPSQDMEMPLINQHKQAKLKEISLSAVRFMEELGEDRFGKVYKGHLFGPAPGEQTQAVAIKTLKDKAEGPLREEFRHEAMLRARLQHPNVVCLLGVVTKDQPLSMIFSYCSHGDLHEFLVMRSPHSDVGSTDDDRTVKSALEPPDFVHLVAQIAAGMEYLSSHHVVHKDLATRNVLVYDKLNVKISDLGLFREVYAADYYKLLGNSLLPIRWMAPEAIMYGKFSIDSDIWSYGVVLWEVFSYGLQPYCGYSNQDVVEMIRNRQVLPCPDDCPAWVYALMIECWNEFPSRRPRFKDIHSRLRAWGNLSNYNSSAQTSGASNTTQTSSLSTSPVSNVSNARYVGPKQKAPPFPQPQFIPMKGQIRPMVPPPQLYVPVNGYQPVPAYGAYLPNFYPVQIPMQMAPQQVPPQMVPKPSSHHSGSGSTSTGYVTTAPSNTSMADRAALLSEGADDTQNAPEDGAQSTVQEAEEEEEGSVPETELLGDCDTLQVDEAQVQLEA

[7] = target: T1, human ROR2 (receptor tyrosine …); assay: plate binding assay (ELISA per Example 1) on ROR2 at pH 6.0 and pH 7.4, 40 ng mAb, untreated and after 1 h at 60°C

Binder	Affinity ELISA, pH 6.0 [4]	Affinity ELISA, pH 7.4 [5]	also measured
B1			Affinity ELISA, pH 6.0 [1]: 0.224; Affinity ELISA, pH 7.4 [2]: 0.115; ratio, pH 6.0/7.4 [3]: 1.95
B2			Affinity ELISA, pH 6.0 [1]: 0.19; Affinity ELISA, pH 7.4 [2]: 0.107; ratio, pH 6.0/7.4 [3]: 1.77
B3	0.755	0.474	
B4	1.13	1.12	
B5	1.23	1.18	
B6	1.34	0.7	
B7	0.733	0.252	
B8	0.56	0.256	
B9	0.911	0.405	
B10			cell killing, difference of effective concentration between pH 7.4 and pH 6.0 [6]: ~10 fold
B11			binding result [7]: binds
B12			binding result [7]: binds
